# Reference: PMC11863153, “Mechanistic Insights Into Oxidative Response of Heat Shock Factor 1 Condensates” (JACS Au, 2025)
# B1: Heat shock factor 1 (Hsf1) wild-type [human] / itself (parent)
# chain: MDLPVGPGAAGPSNVPAFLTKLWTLVSDPDTDALICWSPSGNSFHVFDQGQFAKEVLPKYFKHNNMASFVRQLNMYGFRKVVHIEQGGLVKPERDDTEFQHPCFLRGQEQLLENIKRKVTSVSTLKSEDIKIRQDSVTKLLTDVQLMKGKQECMDSKLLAMKHENEALWREVASLRQKHAQQQKVVNKLIQFLISLVQSNRILGVKRKIPLMLNDSGSAHSMPKYSRQFSLEHVHGSGPYSAPSPAYSSSSLYAPDAVASSGPIISDITELAPASPMASPGGSIDERPLSSSPLVRVKEEPPSPPQSPRVEEASPGRPSSVDTLLSPTALIDSILRESEPAPASVTALTDARGHTDTEGRPPSPPPTSTPEKCLSVACLDKNELSDHLDAMDSNLDNLQTMLSSHGFSVDTSALLDLFSPSVTVPDMSLPDLDSSLASIQELLSPQEPPRPPEAENSSPDSGKQLVHYTAQPLFLLDPGSVDTGSNDLPVLFELGEGSYFSEGDGFAEDPTISLLTGSEPPKAKDPTVS
# Variants of: B1
# Assay: nonreducing SDS-PAGE, quantification of higher-order oligomer bands
# Settings: with itself; purified Hsf1 mutants; means ± s.d. of three independent experiments; parent: 1; read off a plot
row,ratio to parent [AU],Variant
1,0.46,MDLPVGPGAAGPSNVPAFLTKLWTLVSDPDTDALICWSPSGNSFHVFDQGQFAKEVLPKYFKHNNMASFVRQLNMYGFRKVVHIEQGGLVKPERDDTEFQHPCFLRGQEQLLENIKRKVTSVSTLKSEDIKIRQDSVTKLLTDVQLMKGKQESMDSKLLAMKHENEALWREVASLRQKHAQQQKVVNKLIQFLISLVQSNRILGVKRKIPLMLNDSGSAHSMPKYSRQFSLEHVHGSGPYSAPSPAYSSSSLYAPDAVASSGPIISDITELAPASPMASPGGSIDERPLSSSPLVRVKEEPPSPPQSPRVEEASPGRPSSVDTLLSPTALIDSILRESEPAPASVTALTDARGHTDTEGRPPSPPPTSTPEKCLSVACLDKNELSDHLDAMDSNLDNLQTMLSSHGFSVDTSALLDLFSPSVTVPDMSLPDLDSSLASIQELLSPQEPPRPPEAENSSPDSGKQLVHYTAQPLFLLDPGSVDTGSNDLPVLFELGEGSYFSEGDGFAEDPTISLLTGSEPPKAKDPTVS [chain 1 C153S]
2,1.1,MDLPVGPGAAGPSNVPAFLTKLWTLVSDPDTDALISWSPSGNSFHVFDQGQFAKEVLPKYFKHNNMASFVRQLNMYGFRKVVHIEQGGLVKPERDDTEFQHPSFLRGQEQLLENIKRKVTSVSTLKSEDIKIRQDSVTKLLTDVQLMKGKQECMDSKLLAMKHENEALWREVASLRQKHAQQQKVVNKLIQFLISLVQSNRILGVKRKIPLMLNDSGSAHSMPKYSRQFSLEHVHGSGPYSAPSPAYSSSSLYAPDAVASSGPIISDITELAPASPMASPGGSIDERPLSSSPLVRVKEEPPSPPQSPRVEEASPGRPSSVDTLLSPTALIDSILRESEPAPASVTALTDARGHTDTEGRPPSPPPTSTPEKCLSVACLDKNELSDHLDAMDSNLDNLQTMLSSHGFSVDTSALLDLFSPSVTVPDMSLPDLDSSLASIQELLSPQEPPRPPEAENSSPDSGKQLVHYTAQPLFLLDPGSVDTGSNDLPVLFELGEGSYFSEGDGFAEDPTISLLTGSEPPKAKDPTVS [chain 1 C36S C103S]
3,1.4,MDLPVGPGAAGPSNVPAFLTKLWTLVSDPDTDALICWSPSGNSFHVFDQGQFAKEVLPKYFKHNNMASFVRQLNMYGFRKVVHIEQGGLVKPERDDTEFQHPCFLRGQEQLLENIKRKVTSVSTLKSEDIKIRQDSVTKLLTDVQLMKGKQECMDSKLLAMKHENEALWREVASLRQKHAQQQKVVNKLIQFLISLVQSNRILGVKRKIPLMLNDSGSAHSMPKYSRQFSLEHVHGSGPYSAPSPAYSSSSLYAPDAVASSGPIISDITELAPASPMASPGGSIDERPLSSSPLVRVKEEPPSPPQSPRVEEASPGRPSSVDTLLSPTALIDSILRESEPAPASVTALTDARGHTDTEGRPPSPPPTSTPEKSLSVASLDKNELSDHLDAMDSNLDNLQTMLSSHGFSVDTSALLDLFSPSVTVPDMSLPDLDSSLASIQELLSPQEPPRPPEAENSSPDSGKQLVHYTAQPLFLLDPGSVDTGSNDLPVLFELGEGSYFSEGDGFAEDPTISLLTGSEPPKAKDPTVS [chain 1 C373S C378S]
